From patent publication US7125697B2, “Luciferase and photoprotein” (Chisso Corporation, priority 2000, dated 2006)

Tests used:
[1] = Luminescence activity of proteins expressed in cell-free in vitro transcription-translation system; assay type: biochemical; conditions: no microsomal membrane (−); 1 μg coelenterazine
Source text: Using the expression vector, pKAZ-CMV, PSKAZ-CMV, pOL-CMV or pSOL-CMV prepared in Example 10, the 19 kDa or 35 kDa protein constituting Oplophorus luciferase was expressed by means of the in vitro transcription-translation system. As a positive control, pRL-CMV expressing Renilla luciferase was used. The in vitro transcription-translation system is capable of producing a protein from a recombinant plasmid or mRNA prepared from the plasmid and is particularly useful for the luminescence system with high sensitivity for the detection. In this Example, a commercially available in vitro translation kit (TNT in vitro transcription/translation kit; Promega) was used. A fraction of microsomal membranes capable of cleaving the signal sequence for secretion was also added in order to confirm the existence of the signal sequence in the expressed proteins. The in vitro translation mixture (25 μl in total) containing 0.5 μg of the plasmid DNA, 20 μl of rabbit reticulocyte lysate, 1 μl of 1 mM methionine and 2.5 μl of microsomal membranes was incubated at 30° C. for 90 min and then 1 μl of the mixture was subjected to the measurement of its luminescent activity. […] The reaction was started by the addition of a test sample and the intensity of the luminescence was measured by the luminometer.

[2] = Luminescence activity after expression in COS7 cells, bisdeoxy-coelenterazine substrate; assay type: cell-based
Description: (§1) Expression of the proteins as a component of Oplophorus luciferase in mammalian cultured cells COS7 was conducted using the expression plasmids pKAZ-CMV, PSKAZ-CMV, pOL-CMV and pSOL-CMV constructed in Example 10 and pRL-CMV expressing Renilla luciferase as a control for the transfection of the host. COS7 cells (2×10^5 cells) were grown in a 35 mm well-plate containing 3 ml of Dulbecco's modified Eagle's media (Gibco BRL, Rockville, Md., USA) supplemented with 10% (v/v) heat-inactivated fetal calf serum (Gibco BRL), 100 U/ml penicillin and 100 μg/ml of streptomycin. The cells were cultured at 37° C. for 24 hours and then transfected with 2 μg of each plasmid DNA using FuGENE6 transfection reagent (Rosche Diagnostics, Mannheim, Germany). After further incubation for 36 hours, cells were separated from cultured media by centrifugation. The separated cells were suspended in 0.5 ml of phosphate-buffered saline, and subjected to repeated freeze-thawing at a temperature between 37° C. and −80° C. to obtain a cell extract. One μg of coelenterazine or bisdeoxy-coelenterazine was added as a substrate into the cell extract and the intensity of the luminescence was measured by the luminometer.

[3] = Luminescence activity after expression in COS7 cells, coelenterazine substrate; assay type: cell-based; conditions: for Luminescence activity in Cell extracts, Coelenterazine: COS7 cell extracts; for Luminescence activity in Medium, Coelenterazine: COS7 culture medium
Description: as §1

[4] = Preservation test of renatured 19 kDa protein, luminescence activity; assay type: biochemical; conditions: for luminescence activity on preservation: 4° C.; for Luminescence activity after preservation: 4 ° C.
Description: Subsequently, the 19 kDa protein renatured was subjected to the preservation test, which comprises preserving the protein in the absence or presence of 50% (v/w) or 70% (v/w) glycerol at 4° C. for 30 days and then measuring its luminescence activity as mentioned above.

[5] = Renaturation of urea-solubilized 19 kDa protein with glycerol, luminescence activity; assay type: biochemical; conditions: for Luminescence Activity: 25° C., 30 minutes; for Luminescence Activity, relative value in parentheses: relative to 0 % glycerol
Description: E. coli cells constructed in Example 12 which contain the expression vector pHis-KAZ and express the 19 kDa protein were disrupted by the sonication in 20 ml of a buffer comprising 20 mM Tris-HCl, pH 7.5. After centrifugation (12,000×g, 20 minutes), the precipitated fraction was subjected to the solubilization by treating with 20 ml of 20, mM Tris-HCl, pH 7.5 containing 8 M urea and then centrifuged (12,000×g, 20 minutes) to afford a soluble fraction. […] Subsequently, the soluble fraction was subjected to the nickel-chelated column chromatography and the desired protein was eluted by the linear gradient of imidazole from 0 to 0.3 M to give approximately 95% purity.
Consequently, the protein was subjected to the renaturation step by treating with glycerol (the final concentration: from 0 to 90% (v/w)) as a solvent at 25° C. for 30 minutes to afford the 19 kDa protein renatured. As described above, the intensity of the luminescence was measured by the luminometer.

B1: 35 kDa Protein: 35 kDa protein component of Oplophorus luciferase, positions 40–359 of SEQ ID NO: 4, without signal sequence (protein, listed as Oplophorus gracilorostris)
chain: AVACPAAEDIAPCTCKVGEGDVMDMDCSKVTSDAELASIFSKTFPSNTFRELFIEFNREITTLTADSLGAATFTKIAITSCTQLKTIEENAFMASAATLEKLVLLKNDLSSFPFEEMSQYTKLNWLELSVNSITGWPALSSDTLANLILFRNPIGNIPVDAFQTLPNIEQFNCFDCSITEVEAGTFTRSPKLQKLVLGYNGLTSLPVGAIKLHGHGPTTSNLGITNNQIISFPEGAVEGIQGILGIDFNRVTSLSEEVWRPILENLFQFSLLNNPLACVCDVMWLIDSPELLAKIKGNPRCAGGKRLKNLDPAVFHAMCQ
Luminescence Activity [1]: <0.001 rlu | Luminescence activity in Cell extracts, Bisdeoxy-coelenterazine [2]: <0.001 rlu | Luminescence activity in Cell extracts, Coelenterazine [3]: <0.001 rlu | Luminescence activity in Medium, Coelenterazine [3]: 2.45 rlu

B2: 19 kDa Protein: 19 kDa photoprotein component of Oplophorus luciferase, positions 28–196 of SEQ ID NO: 2, without signal sequence (protein, listed as Oplophorus gracilorostris)
chain: FTLADFVGDWQQTAGYNQDQVLEQGGLSSLFQALGVSVTPIQKVVLSGENGLKADIHVIIPYEGLSGFQMGLIEMIFKVVYPVDDHHFKIILHYGTLVIDGVTPNMIDYFGRPYPGIAVFDGKQITVTGTLWNGNKIYDERLINPDGSLLFRVTINGVTGWRLCENILA
luminescence activity on preservation ([4]; absence of glycerol, 30 days): significantly decreased | Luminescence activity after preservation ([4]; glycerol 0 % v/w, 0 day): 102 rlu | Luminescence activity after preservation ([4]; glycerol 0 % v/w, 30 days): 23 rlu | Luminescence activity after preservation ([4]; glycerol 50 % v/w, 0 day): 3,840 rlu | Luminescence activity after preservation ([4]; glycerol 50 % v/w, 30 days): 3,734 rlu | luminescence activity on preservation ([4]; presence of glycerol (50% or 70% v/w), 30 days): maintained without decreasing | Luminescence Activity [1]: 1242.0 rlu | Luminescence activity in Cell extracts, Bisdeoxy-coelenterazine [2]: 2,124.0 rlu | Luminescence activity in Cell extracts, Coelenterazine [3]: 2,273.0 rlu | luminescent intensity compared with pRL-CMV ([3]; COS7 cells): equivalent to that from pRL-CMV | Luminescence activity in Medium, Coelenterazine [3]: 3.62 rlu | luminescence activity before renaturation ([5]; after 8 M urea solubilization and nickel-chelated column, before glycerol): no luminescence activity | Luminescence Activity ([5]; glycerol 0 % v/w): 83 rlu | Luminescence Activity, relative value in parentheses ([5]; glycerol 0 % v/w): (1.0) | Luminescence Activity ([5]; glycerol 10 % v/w): 147 rlu | Luminescence Activity, relative value in parentheses ([5]; glycerol 10 % v/w): (1.8) | Luminescence Activity ([5]; glycerol 20 % v/w): 375 rlu | Luminescence Activity, relative value in parentheses ([5]; glycerol 20 % v/w): (4.5) | Luminescence Activity ([5]; glycerol 30 % v/w): 1,258 rlu | Luminescence Activity, relative value in parentheses ([5]; glycerol 30 % v/w): (15.2) | Luminescence Activity ([5]; glycerol 40 % v/w): 1,818 rlu | Luminescence Activity, relative value in parentheses ([5]; glycerol 40 % v/w): (24.9) | Luminescence Activity ([5]; glycerol 50 % v/w): 3,822 rlu | Luminescence Activity, relative value in parentheses ([5]; glycerol 50 % v/w): (46.0) | Luminescence Activity ([5]; glycerol 60 % v/w): 4,860 rlu | Luminescence Activity, relative value in parentheses ([5]; glycerol 60 % v/w): (58.6) | Luminescence Activity ([5]; glycerol 70 % v/w): 4,462 rlu | Luminescence Activity, relative value in parentheses ([5]; glycerol 70 % v/w): (53.8) | Luminescence Activity ([5]; glycerol 80 % v/w): 2,842 rlu | Luminescence Activity, relative value in parentheses ([5]; glycerol 80 % v/w): (34.2) | Luminescence Activity ([5]; glycerol 90 % v/w): 2,536 rlu | Luminescence Activity, relative value in parentheses ([5]; glycerol 90 % v/w): (30.6)
